Assay results from patent US20200123264A1 (Regeneron, published 2020).

T1: extracellular domain of human LEPR with an N-terminal myc-myc tag, GPI-anchored on HEK293 cells (human, UniProt P48357 22-839, GPI anchor at the C-terminus ; A GPI anchor is attached at the C end through a carboxypeptidase M derived peptide. The protein is displayed on HEK293 cells.)
T1 construct: also called HEK293/hLEPR-GPI; Mycx2-hLEPR(Ecto)-GPI
T1 sequence: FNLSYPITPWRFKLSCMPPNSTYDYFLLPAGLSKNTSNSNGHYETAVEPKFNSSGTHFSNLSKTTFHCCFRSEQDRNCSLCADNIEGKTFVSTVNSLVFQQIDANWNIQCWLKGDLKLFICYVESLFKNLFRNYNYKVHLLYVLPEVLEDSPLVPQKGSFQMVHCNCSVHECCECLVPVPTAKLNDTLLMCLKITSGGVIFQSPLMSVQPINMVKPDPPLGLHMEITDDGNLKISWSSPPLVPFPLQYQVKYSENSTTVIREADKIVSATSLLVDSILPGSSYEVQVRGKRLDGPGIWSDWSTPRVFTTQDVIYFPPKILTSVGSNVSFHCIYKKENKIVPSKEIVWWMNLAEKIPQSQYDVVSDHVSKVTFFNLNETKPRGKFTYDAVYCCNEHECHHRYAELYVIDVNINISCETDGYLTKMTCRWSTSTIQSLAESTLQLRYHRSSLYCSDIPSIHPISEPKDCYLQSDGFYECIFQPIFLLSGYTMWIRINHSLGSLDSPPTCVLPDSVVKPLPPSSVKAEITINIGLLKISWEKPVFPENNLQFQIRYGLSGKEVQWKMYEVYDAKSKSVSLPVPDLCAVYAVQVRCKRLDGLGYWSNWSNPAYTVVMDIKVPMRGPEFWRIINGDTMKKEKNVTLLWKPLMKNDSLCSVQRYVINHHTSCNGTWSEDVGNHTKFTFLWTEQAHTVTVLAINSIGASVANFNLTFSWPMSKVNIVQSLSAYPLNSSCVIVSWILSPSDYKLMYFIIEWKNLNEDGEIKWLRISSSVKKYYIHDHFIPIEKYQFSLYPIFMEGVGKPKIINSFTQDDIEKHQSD

B1: H4H18439P2 (antibody, human IgG4, V domains shown)
VH: QLQLQESGPGLVKPSETLSLTCIVSGGDITSSSYYWNWIRQPPGKGLEWIGNIYYSGSTNYNPSLKSRVTISIDTSKSQFSLKLRSVTAADTAVYYCARLLRYFDWSKGYLDYWGQGTLVTVSS
VL: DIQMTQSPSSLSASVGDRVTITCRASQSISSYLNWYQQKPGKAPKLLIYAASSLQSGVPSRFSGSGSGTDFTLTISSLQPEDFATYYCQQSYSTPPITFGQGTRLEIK
notes: H4H prefix: human IgG4 Fc
B2: H4H18464P2 (antibody, human IgG4, V domains shown)
VH: QVQLVQSGPEVKKPGASVKVSCKGSGYTFSWYGISWIRQAPGHGLEWMGWISASSGNTRFAQKVQGRLTMTTDTSTSTAYMELRSLRSDDTAVYYCARTGTRPFDYWGQGTLVTVSS
VL: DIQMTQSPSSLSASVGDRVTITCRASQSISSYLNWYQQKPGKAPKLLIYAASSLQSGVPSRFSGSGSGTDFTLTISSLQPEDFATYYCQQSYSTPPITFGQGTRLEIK
notes: H4H prefix: human IgG4 Fc
B3: H4H17322P2 (antibody, human IgG4, V domains shown)
VH: QLQLQESGPGLVKPSETLSLTCTVSGASISSSRFYGGWIRQPPGKGLEWIGDIYYSGNTYYNPSLQSRVTISVDTSKNQFSLKLSSVTAADTAVYYCARHLMITFGGLIVEGFDIWGQGTMVTVSS
VL: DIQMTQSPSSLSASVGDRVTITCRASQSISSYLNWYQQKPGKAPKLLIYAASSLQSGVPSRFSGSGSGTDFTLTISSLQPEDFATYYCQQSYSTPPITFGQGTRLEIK
notes: H4H prefix: human IgG4 Fc
B4: H4H18457P2 (antibody, human IgG4, V domains shown)
VH: EVQLVESGGSVVRPGESLRLSCAASGFTFDDYGMSWVRQAPGKGLEWVSGISWNGGITVYADSVKGRFTVSRDNAKNSLYLQMNSLRAEDTALYHCARARYGGADYWGQGTLVTVSS
VL: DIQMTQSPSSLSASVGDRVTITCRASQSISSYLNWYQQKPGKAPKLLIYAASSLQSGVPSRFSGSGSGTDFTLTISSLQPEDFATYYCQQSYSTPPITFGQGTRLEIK
notes: H4H prefix: human IgG4 Fc
B5: H4H18466P2 (antibody, human IgG4, V domains shown)
VH: EVQLVESGGGLVQPGGSLRLSCTASGFTFSSYGLHWVRQAPGKGLEYVSSINHNGGSKYYADSVKGRFTISRDNSKNTLFLQMGSLKTEDMAVYYCARDLFLEWLFHGFDIWGQGTMVTVSS
VL: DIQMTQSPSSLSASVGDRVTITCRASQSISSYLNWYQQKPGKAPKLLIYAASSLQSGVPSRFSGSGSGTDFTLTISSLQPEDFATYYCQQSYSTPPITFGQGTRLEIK
notes: H4H prefix: human IgG4 Fc
B6: H4H18437P2 (antibody, human IgG4, V domains shown)
VH: QVQLVESGGGVVQPGRSLRLSCAASGFTFSSYGIHWVRQAPGKGLEWVAVISYDGNNKYYADSVKGRFTISRDNSKNTLYLQMNSLRAEDTAVYYCAKDLFLEWLFHGMGVWGQGTTVTVSS
VL: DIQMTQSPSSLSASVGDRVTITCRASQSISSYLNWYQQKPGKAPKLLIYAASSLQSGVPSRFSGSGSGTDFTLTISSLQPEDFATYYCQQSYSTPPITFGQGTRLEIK
notes: H4H prefix: human IgG4 Fc
B7: H4H18440P2 (antibody, human IgG4, V domains shown)
VH: QVQLVESGGGMVKPGGSLRLSCAASGFTFSDYYMSWIRQAPGKGLEWISHISITGSTIYYADSVKGRFTISRDNAKNSLYLEMNRLRDEDTAVYYCTRDEPDIVLVRYGMDVWGQGTTVTVSS
VL: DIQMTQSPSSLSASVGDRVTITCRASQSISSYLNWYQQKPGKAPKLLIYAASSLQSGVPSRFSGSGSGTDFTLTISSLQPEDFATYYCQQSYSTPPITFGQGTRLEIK
notes: H4H prefix: human IgG4 Fc
B8: H4H18462P2 (antibody, human IgG4, V domains shown)
VH: EVQLVESGGDLVQPGRSLRLSCAASGFTFSSFAMSWVRQAPGRGLEWVSSLSDSGDNTYYADSVKGRFTISRDNSKNTLYLQMNNLRAEDTAVYYCAKDLFSGWLFHGFDVWGQGTMVTVSS
VL: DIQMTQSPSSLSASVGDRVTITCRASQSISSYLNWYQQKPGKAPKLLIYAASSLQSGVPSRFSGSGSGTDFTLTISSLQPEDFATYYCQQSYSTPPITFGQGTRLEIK
notes: H4H prefix: human IgG4 Fc

Key:
[1] = molecular target: T1, extracellular domain of human LEPR with …; test: FACS, 10 nM Ab, HEK293/hLEPR-GPI cells, no added Leptin
Experimental: For the FACS analysis, HEK293 parental cells and HEK293/hLEPR-GPI cells were dissociated and plated onto 96-well v-bottom plates at 5×10⁵ cells/well in PBS containing 2% FBS (FACS buffer). […] Cells were subsequently fixed using BD CytoFix™ (Becton Dickinson, #554655), filtered, and analyzed on a HyperCyt Flow Cytometer (Beckman Coulter). Unstained and secondary antibody alone controls were also tested for all cell lines. The results were analyzed using ForeCyt (IntelliCyt) and FlowJo version 10 softwares to determine the geometric means of fluorescence for viable cells. The geometric mean of fluorescence for each sample was then normalized to the geometric mean of unstained cells to obtain relative binding per condition referred to as “binding ratios”, and these binding ratios were recorded in Table 14 for each antibody tested.

[2] = molecular target: T2, recombinant mouse LEPR extracellular domain expressed with a C-terminal myc-myc-hexahistidine tag (mouse, UniProt P48356 22-839); test: SPR, mAb captured, 25 C
T2 construct: Monomeric construct; also called mLEPR.MMH; mLEPR-MMH
T2 sequence (P48356 other isoform, or with tags, fused parts or gaps): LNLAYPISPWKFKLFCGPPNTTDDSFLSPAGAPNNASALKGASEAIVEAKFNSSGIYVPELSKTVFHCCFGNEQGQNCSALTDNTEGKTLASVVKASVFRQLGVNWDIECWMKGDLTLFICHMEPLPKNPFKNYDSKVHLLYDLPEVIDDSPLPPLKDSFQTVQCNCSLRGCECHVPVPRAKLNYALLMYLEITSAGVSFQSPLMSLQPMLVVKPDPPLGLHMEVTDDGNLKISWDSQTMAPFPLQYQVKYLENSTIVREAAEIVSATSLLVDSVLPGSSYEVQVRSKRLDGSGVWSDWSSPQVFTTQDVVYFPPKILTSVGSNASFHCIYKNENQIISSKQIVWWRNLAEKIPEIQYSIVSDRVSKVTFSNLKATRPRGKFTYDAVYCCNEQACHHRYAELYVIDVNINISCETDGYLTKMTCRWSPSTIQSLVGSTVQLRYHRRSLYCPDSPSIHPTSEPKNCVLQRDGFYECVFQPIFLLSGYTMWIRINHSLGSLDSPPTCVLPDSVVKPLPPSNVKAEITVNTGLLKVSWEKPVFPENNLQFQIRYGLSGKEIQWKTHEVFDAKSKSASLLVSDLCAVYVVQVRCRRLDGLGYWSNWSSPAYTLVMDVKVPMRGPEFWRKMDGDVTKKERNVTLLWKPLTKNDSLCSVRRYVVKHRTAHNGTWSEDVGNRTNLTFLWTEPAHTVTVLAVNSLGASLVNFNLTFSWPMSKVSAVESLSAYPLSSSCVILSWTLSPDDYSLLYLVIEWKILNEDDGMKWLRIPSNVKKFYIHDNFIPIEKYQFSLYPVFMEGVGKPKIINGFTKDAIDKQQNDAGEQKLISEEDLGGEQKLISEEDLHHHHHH
Experimental: Equilibrium dissociation constants (KD values) for antigen binding to purified anti-LEPR monoclonal antibodies of the invention were determined using a real-time surface plasmon resonance biosensor using a Biacore 4000 instrument. All binding studies were performed in running buffer containing 10 mM HEPES, 150 mM NaCl, 3 mM EDTA, and 0.05% v/v Surfactant Tween-20, pH 7.4 (HBS-ET running buffer) at 25° C. and 37° C. The Biacore sensor surface was first derivatized by amine coupling with a monoclonal mouse anti-human Fc antibody (GE, # BR-1008-39) to the capture anti-LEPR monoclonal antibodies. The LEPR reagents tested for binding to the anti-LEPR monoclonal antibodies included recombinant human LEPR extracellular domain expressed with a C-terminal myc-myc-hexahistidine tag (hLEPR.MMH; SEQ ID NO:90), recombinant cynomolgus monkey LEPR extracellular domain expressed with a C-terminal myc-myc-hexahistidine tag (mfLEPR.MMH; SEQ ID NO:93), recombinant mouse LEPR extracellular domain expressed with a C-terminal myc-myc-hexahistidine tag (mLEPR.MMH; SEQ ID NO:94), recombinant rat LEPR extracellular domain expressed with a C-terminal myc-myc-hexahistidine tag (rLEPR.MMH; SEQ ID NO:95), and recombinant human LEPR extracellular domain expressed with a C-terminal mouse IgG2a Fc tag (hLEPR.mFc; SEQ ID NO:91). LEPR constructs that include MMH tags are monomeric LEPR constructs, and LEPR constructs including an mFc tag are dimeric LEPR constructs. […] The dissociation of monoclonal antibody bound LEPR reagent was monitored for 10 minutes in HBS-ET running buffer. Kinetic association (10 and dissociation (10 rate constants were determined by fitting the real-time binding sensorgrams to a 1:1 binding model with mass transport limitation using Scrubber 2.0c curve-fitting software. Binding dissociation equilibrium constants (KD) and dissociative half-lives (t½) were calculated from the kinetic rate constants as: […]

Binder | Binding Ratio (normalized to unstained) [1] | 100 nM mLEPR-MMH Bound (RU) [2] | binding result [2] | Kd [2] | koff [2] | kon [2] | t½ [2]
B1 | 1530 fold | -2 RU |  |  |  |  | 
B2 | 2320 fold | -1 RU |  |  |  |  | 
B3 |  | 0 RU |  |  |  |  | 
B4 | 3190 fold | 1 RU |  |  |  |  | 
B5 | 824 fold | 1 RU | no binding (tested: 100 nM) |  |  |  | 
B6 |  | 6 RU |  | 264 nM | 0.00418 s⁻¹ | 15800 M⁻¹ s⁻¹ | 2.8 min
B7 | 1640 fold | -3 RU |  |  |  |  | 
B8 | 1170 fold | 2 RU | no binding (tested: 100 nM) |  |  |  | 
